# B1: BBSome complex member BBS2 (Homo sapiens), Q9BXC9 (parent)
# chain: MLLPVFTLKLRHKISPRMVAIGRYDGTHPCLAAATQTGKVFIHNPHTRNQHVSASRVFQSPLESDVSLLSINQAVSCLTAGVLNPELGYDALLVGTQTNLLAYDVYNNSDLFYREVADGANAIVLGTLGDISSPLAIIGGNCALQGFNHEGSDLFWTVTGDNVNSLALCDFDGDGKKELLVGSEDFDIRVFKEDEIVAEMTETEIVTSLCPMYGSRFGYALSNGTVGVYDKTSRYWRIKSKNHAMSIHAFDLNSDGVNELITGWSNGKVDARSDRTGEVIFKDNFSSAIAGVVEGDYRMDGHIQLICCSVDGEIRGYLPGTAEMRGNLMDTSAEQDLIRELSQKKQNLLLELRNYEENAKAELASPLNEADGHRGIIPANTRLHTTLSVSLGNETQTAHTELRISTSNDTIIRAVLIFAEGIFTGESHVVHPSIHNLSSSICIPIVPPKDVPVDLHLKAFVGYRSSTQFHVFESTRQLPRFSMYALTSLDPASEPISYVNFTIAERAQRVVVWLGQNFLLPEDTHIQNAPFQVCFTSLRNGGHLHIKIKLSGEITINTDDIDLAGDIIQSMASFFAIEDLQVEADFPVYFEELRKVLVKVDEYHSVHQKLSADMADHSNLIRSLLVGAEDARLMRDMKTMKSRYMELYDLNRDLLNGYKIRCNNHTELLGNLKAVNQAIQRAGRLRVGKPKNQVITACRDAIRSNNINTLFKIMRVGTASS
# partner: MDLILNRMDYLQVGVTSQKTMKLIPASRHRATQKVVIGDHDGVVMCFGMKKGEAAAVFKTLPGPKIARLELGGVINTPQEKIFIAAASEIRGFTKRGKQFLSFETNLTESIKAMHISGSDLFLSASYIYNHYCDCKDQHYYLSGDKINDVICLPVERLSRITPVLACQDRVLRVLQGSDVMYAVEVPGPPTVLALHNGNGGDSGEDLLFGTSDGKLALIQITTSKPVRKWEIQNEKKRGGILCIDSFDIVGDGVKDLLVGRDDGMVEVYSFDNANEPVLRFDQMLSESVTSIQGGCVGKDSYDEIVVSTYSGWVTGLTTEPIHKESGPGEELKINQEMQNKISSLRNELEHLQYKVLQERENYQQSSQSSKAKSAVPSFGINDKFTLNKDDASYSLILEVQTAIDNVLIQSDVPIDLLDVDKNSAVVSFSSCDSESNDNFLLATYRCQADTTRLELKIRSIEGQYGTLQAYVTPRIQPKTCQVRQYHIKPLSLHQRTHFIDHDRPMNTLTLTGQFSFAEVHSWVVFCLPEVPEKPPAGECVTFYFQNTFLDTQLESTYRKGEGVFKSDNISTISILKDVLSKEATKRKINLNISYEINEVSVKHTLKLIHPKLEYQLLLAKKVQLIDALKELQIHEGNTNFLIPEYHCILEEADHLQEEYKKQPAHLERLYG
# Variants of: B1
# Details: with BBS7, Q8IWZ6-2
row,effect of a mutation on the interaction,Variant
1,with no effect,E394A
2,with no effect,E394K
3,with no effect,D371E
4,with no effect,D371A
5,with no effect,D371K
6,with no effect,I417A
7,with no effect,I417K
8,with no effect,I417E
9,with no effect,A370K
10,with no effect,A370E
11,with no effect,T381E
12,with no effect,T381K
13,with no effect,T381A
14,with no effect,S365K
15,with no effect,S365A
16,with no effect,S365E
17,with no effect,N368K
18,with no effect,N368A
19,with no effect,N368E
20,with no effect,T406E
21,with no effect,T406A
22,with no effect,T406K
23,with no effect,T385A

row,effect of a mutation on the interaction,Variant
1,disrupting interaction strength,T385E
2,with no effect,T385K
3,with no effect,S407E
4,with no effect,S407A
5,with no effect,S407K
6,with no effect,H399A
7,with no effect,H399K
8,with no effect,H399E
9,with no effect,E420K
10,with no effect,E420A
11,with no effect,I404A
12,with no effect,I404E
13,disrupting interaction strength,I404K
14,with no effect,L391A
15,with no effect,L391K
16,with no effect,L391E
17,with no effect,N408E
18,disrupting interaction strength,N408S
19,with no effect,N408K
20,with no effect,N408A
21,with no effect,A414E
22,with no effect,A414K
23,with no effect,P366K

row,effect of a mutation on the interaction,Variant
1,with no effect,P366E
2,with no effect,P366A
3,with no effect,Q396A
4,with no effect,Q396E
5,with no effect,Q396K
6,with no effect,A419E
7,with no effect,A419K
8,with no effect,H373A
9,with no effect,H373E
10,with no effect,H373K
11,disrupting interaction strength,L402K
12,with no effect,L402E
13,disrupting interaction strength,L402C
14,disrupting interaction strength,L402A
15,with no effect,L363E
16,with no effect,L363K
17,with no effect,T386E
18,with no effect,T386K
19,with no effect,T386A
20,with no effect,V389E
21,disrupting interaction strength,V389K
22,with no effect,V389A
23,with no effect,N393E

row,effect of a mutation on the interaction,Variant
1,with no effect,N393K
2,with no effect,N393A
3,with no effect,A379K
4,with no effect,A379E
5,with no effect,S405K
6,with no effect,S405A
7,with no effect,S405E
8,with no effect,G372K
9,with no effect,G372E
10,with no effect,G372A
11,with no effect,G375E
12,with no effect,G375A
13,with no effect,G375K
14,with no effect,I422E
15,with no effect,I422K
16,with no effect,I422A
17,with no effect,T395K
18,with no effect,T395E
19,with no effect,T395A
20,with no effect,S388E
21,with no effect,S388K
